We go through three molecules from patent US20110287023A1 (AstraZeneca / MedImmune, published 2011).

Experiment [1] has as its target T1, HMG2 coated on ELISA plates (Bos taurus (Bovine), UniProt P40673 2-209).
T1 construct: also called HMGB2; HMBG2
T1 sequence: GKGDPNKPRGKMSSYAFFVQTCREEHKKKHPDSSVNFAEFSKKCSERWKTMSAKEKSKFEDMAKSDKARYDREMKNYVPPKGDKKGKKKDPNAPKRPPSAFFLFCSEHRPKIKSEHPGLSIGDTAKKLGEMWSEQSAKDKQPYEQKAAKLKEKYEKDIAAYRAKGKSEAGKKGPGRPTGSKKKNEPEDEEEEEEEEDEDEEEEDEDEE
The experiment can be described thus: direct ELISA, HMGB2 coated at 5 ug/mL, OD 490. How it is done: (§1) Binding to HMG1 vs. HMG2: Ultra high-binding ELISA plates (ThermoLab systems, #3855) were coated with either 5 ug/mL of Calf thymus HMGB1 or HMBG2 diluted in 10 mM Phosphate buffered saline (PBS), pH 7.2 and incubate overnight at 4 degrees. The plates were washed twice with Ca and Mg free PBS and 100 microliters of anti-HMGB1 antibody diluted in 10 mM PBS, pH 7.2+1% bovine serum albumin (BSA) to a final concentration of 10 ug/mL was added to each well and the plates were incubated 1 hour at room temperature. The wells were washed three times with 100 μl of PBS, pH 7.2. HRP labeled goat-anti-human IgG Kappa-chain (KPL, #14-10-10) and goat-anti-human IgG Lambda-chain (KPL, #14-10-11) were diluted in 10 mM PBS+1% BSA 1:1000 and 100 μl were added to each well and incubated for 1 hour at room temperature. The wells were then washed three times with 100 μl of PBS, pH 7.2. OPD substrate (Pierce chemical company, #34006) was prepared following the manufacturers instructions and 100 μl of prepared substrate was added to each well and the plates incubated at room temperature in the dark for 20-30 minutes. The reaction was stopped with the addition of 100 μl of 2M H₂SO₄, and the plates read on a plate reader at a wavelength of 490 nm.

Experiment [2] addresses T2, recombinant HMG1 produced in E. coli as a calmodulin binding protein (CBP) fusion (human).
T2 construct: also called rHMG1; rHMGB1
The experiment can be described thus: BIAcore 3000, mAb amine-coupled to CM5, HMG1 injected, steady-state model. How it is done: HMG1 Binding Affinity via BIAcore Analysis: All experiments were performed on a BIAcore 3000 instrument (BIAcore, Inc., Piscataway, N.J.). Briefly, each mAb was immobilized to a CM5 sensor chip using a standard amine coupling chemistry. Separately a reference (control) flow cell was also prepared. Two-fold, serial dilutions of HMG1 in instrument buffer were sequentially injected at a slow flow rate over the individual mAb and reference flow-cell surfaces. Following the binding and dissociation of HMG1, the mAbs surfaces were regenerated with a brief pulse of 1M NaCl-50 mM NaOH. At the end of each experiment, the binding curves were evaluated using a steady-state model available through the BIAevaluation software supplied by BIAcore, Inc. (Piscataway, N.J.).

Experiment [3] addresses T2, recombinant HMG1 produced in E. coli as …. Description: ELISA, coated RAGE-Fc, rHMG1 preincubated with antibody. As to the method: HMG1 binding to RAGE-Ig by ELISA: 50 μl/well of RAGE-Fc fusion protein at 5 μg/ml in PBS was added to each well of an ELISA plate and incubated overnight at 4° C. The plate was then blocked with 200 μl of 5% milk at 37° C. for 1 hr and washed 3× with PBS/Tween. 50 μl/well of diluted HMGB1 solution. For dose curves, HMGB1 concentrations started at 4 ug/ml in PBS. For antibody blocking the HMGB1 was preincubated in another plate with human anti-HMG1 antibodies or buffer, then transferred to the RAGE-coated plate. The plates were then incubated at room temperature for 2 hours and washed 3×. To detect any HMG1 bound to the immobilized RAGE-Fc a mixture of biotinylated mouse anti-HMG1 mAbs (10D4, 4H11, 3E10 and 5C12) each at 1 ug/ml, total Ab: 4 ug/ml, were added to each well and the plate was incubated for 1 hour at room temperature. The plate was then washed and Strepavidin-HPR was added to each well and incubated 15 min. The plate was then washed 3× and blotted dry. 100 μl of TMB developing agent was added and the plate read at 650 nm. Values were calculated as percent of inhibition with HMG1 alone equal to 0% inhibition. The data in FIG. 9 and summarized in Table 1 represent the average of two separate experiments.

The target of experiment [4] is T3, HMG1 B Box peptide amino acids 91-169.
T3 construct: also called HMG1 peptide 91-169
T3 peptide: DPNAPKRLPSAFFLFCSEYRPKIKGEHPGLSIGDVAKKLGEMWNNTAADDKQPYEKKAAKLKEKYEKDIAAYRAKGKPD
The experiment can be described thus: ELISA, HMG1 B Box peptide 91-169 coated at 10 ug/ml, antibody titrated, OD 450. How it is done: (§2) The plate was then blocked with 4% milk powder dissolved in PBS at 37° C. for 1 hour. The blocking solution was removed and replaced with human anti-HMG1 antibodies at various concentrations (see FIGS. 5A-B). […] HRP activity was detected with Sureblue HRP substrate (KPL). Plates were read at 450 nm using a Kinetic Microplate Reader (Molecular Devices). […] After washing and blocking with 1% BSA in PBS, the biotinylated peptides were individually added into the avidin coated wells and incubated for 30 min at room temperature. The serial diluted antibody G4, S16 and S6 at the initial concentration at 10 μg/ml were then transferred into the wells followed by adding mouse anti human IgG-HRP conjugate (Pierce). Detection was accomplished by adding 50 μl of tetramethylbenzidine (TMB) substrate (KPL) and the absorbance was read at 450 nm.

Experiment [5] addresses T4, HMG1 purified from calf (bovine) thymus (bovine, UniProt P10103 2-215).
T4 construct: also called Calf thymus HMGB1; thymus HMG1
T4 sequence (looked up): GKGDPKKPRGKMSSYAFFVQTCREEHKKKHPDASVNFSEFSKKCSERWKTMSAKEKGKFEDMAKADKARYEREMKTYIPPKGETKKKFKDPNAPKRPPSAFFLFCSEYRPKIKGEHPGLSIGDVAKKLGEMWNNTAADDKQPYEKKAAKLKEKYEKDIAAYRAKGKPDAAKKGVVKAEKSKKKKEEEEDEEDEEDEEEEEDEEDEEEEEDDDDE
The experiment can be described thus: direct ELISA, calf thymus HMGB1 coated at 5 ug/mL, antibody at 10 ug/mL, anti-human kappa/lambda-HRP, OD 490. How it is done: as §1

Experiment [6] deals with T5, HMG1 B Box peptide amino acids 150-183.
T5 peptide: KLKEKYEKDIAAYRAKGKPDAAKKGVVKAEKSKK
The experiment can be described thus: ELISA, HMG1 B Box peptide 150-183 coated at 10 ug/ml, antibody titrated, OD 450. As to the method:
as §2

Experiment [7] deals with T2, recombinant HMG1 produced in E. coli as …. The experiment can be described thus: cell-based or functional assay.
Experiment [8] has as its target T6, activated HMG1 from LPS stimulated THP-1 cells (human, UniProt P09429 1-215).
T6 sequence (looked up): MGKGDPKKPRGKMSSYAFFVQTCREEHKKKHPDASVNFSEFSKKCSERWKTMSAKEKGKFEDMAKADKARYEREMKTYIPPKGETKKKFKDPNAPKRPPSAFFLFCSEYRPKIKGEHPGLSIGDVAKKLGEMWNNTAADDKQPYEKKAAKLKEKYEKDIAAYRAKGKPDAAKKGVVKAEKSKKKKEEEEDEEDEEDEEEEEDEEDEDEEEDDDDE
The experiment can be described thus: cell-based or functional assay.

For experiment [9], the target named is T2, recombinant HMG1 produced in E. coli as …. The experiment can be described thus: sandwich ELISA: antibody titrated and captured on anti-human IgG Fc, soluble recombinant HMG1 at 2 ug/ml, mouse anti-HMGB1 and anti-mouse IgG-HRP, OD 450. As to the method: Sandwich ELISA (soluble HMG1): Immunoplates (EIA/RIA plate, High binding, Costar) were coated with anti human IgG Fc at 10 μg/ml in PBS (pH 7.2) and incubated at 4° C. overnight. The coating reagent was removed and the plates were rinsed briefly with PBS. The plates were then blocked with 4% milk for 1 hour at 37° C. and rinsed with PBS. The anti-HMG1 antibodies were diluted in 4% milk. For serial dilutions, the antibodies were used at a starting concentration of 20 μg/ml. The diluted anti-HMG1 antibodies were then added into plate and incubated for 1 hr at 37° C. The plate was then washed 10 times with PBST (PBS/0.1% tween 20) and incubate with antigen (HMGB1, 2 μg/ml; or 0.7 μg/ml for native HMGB1) in 4% milk and incubated at 37° C. for 1 h. The plate was then wash 10 times and incubated with mouse anti-HMGB1, 1 μg/ml in 4% milk at 37° C. for 1 h. The plate was washed 10 times and incubated with anti-mouse IgG-HRP at 1:1000 at 37° C. for 1 h. The plate was then washed and developed. HRP activity was detected with Sureblue HRP substrate (KPL). Plates were read at 450 nm using a Kinetic Microplate Reader (Molecular Devices).

B1: human anti-HMG1 antibody S10 (antibody, IgG1, V domains shown)
VH: EVQLLESGGGLVQPGGSLRLSCAASGFTFSWYDMWWVRQAPGKGLEWVSWIVPSGGITAYADSVKGRFTISRDNSKNTLYLQMNSLRAEDTATYYCARGNYGPSPFDYWGQGTLVTVSS
VL: DIQMTQSPGTLSLSPGERATLSCRATQSVRKNFLAWYQQKPGQAPRLLIYDASSRATGIPDRFSGSGSGTDFTLTISRLEPEDFAVYYCQQYGNSPIIFGQGTRLEIK
notes: full length IgG1 made from a human Fab phage clone
For the molecule B1, the binding result in experiment [1] is given as “no binding (tested: 10 ug/mL (single concentration))”. The Kd in [2] is 54 nM. Besides, the “percent inhibition of HMG1 binding to RAGE” value in [3] was no less than 35%. Besides, the binding result in experiment [4] is on record as “no binding (tested: 10 ug/ml (log 1.0))”. Further, the binding result in experiment [5] is on record as “binds”. Further, the binding result in experiment [6] was “no binding (tested: 10 ug/ml (log 1.0))”. In experiment [7], the “IC50 IL-1β” value was 2.59 µg/mL, the “IC50 IL-6” value worked out at 0.324 nM, the “IC50 IL-12” value is 1.13 µg/mL and the “IC50 TNF-α” value is 0.875 µg/mL.

B2: human anti-HMG1 antibody S17 (antibody, IgG1, V domains shown)
VH: EVQLLESGGGLVQPGGSLRLSCAASGFTFSYYDMHWVRQAPGKGLEWVSRISPSGGYTWYADSVKGRFTISRDNSKNTLYLQMNSLRAEDTAVYYCTRGRYTSGWHEYFDPWGQGTLVTVSS
VL: DIQMTQSPSSLSASVGDRVTITCRASQSIGTYLNWYQQKPGTAPKVLIYAASSLQSGVPSRFSGSGSGTDFTLTISSLQPEDFSTYYCQQSYNTPRTFGQGTKLEIK
notes: as for B1
Regarding B2, the binding result in experiment [1] is “no binding (tested: 10 ug/mL (single concentration))”; in experiment [4], “no binding (tested: 10 ug/ml (log 1.0))”; in experiment [5], “binds”; in experiment [6] it was “no binding (tested: 10 ug/ml (log 1.0))”. Moreover, the Kd in experiment [2] was 331 nM. Further, in experiment [7], the “IC50 IL-1β” value is 0.0809 µg/mL. The “IC50 IL-6” value in experiment [7] came to 0.162 nM. In experiment [7], the “IC50 NO” value was found to be 41.7 µg/mL. In addition, the “IC50 nm IL-6 Native HMGB” value in [8] turned out to be 11.4 nM.

B3: human anti-HMG1 antibody S2 (antibody, V domains shown)
VH: EVQLLESGGGLVQPGGSLRLSCAASGFTFSGYMMVWVRQAPGKGLEWVSRISPSGGQTGYADSVKGRFTISRDNSKNTLYLQMNSLRAEDTAVYYCAREEGGSYGAFDIWGQGTMVTVSS
VL: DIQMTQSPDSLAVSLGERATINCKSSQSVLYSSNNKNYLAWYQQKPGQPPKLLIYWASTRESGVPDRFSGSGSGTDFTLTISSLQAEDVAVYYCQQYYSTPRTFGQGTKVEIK
notes: full length IgG1 made from a human Fab phage clone; also called ATCC PTA-6142
With B3, the binding result is recorded as “no binding (tested: 10 ug/mL (single concentration))” in experiment [1], “no binding (tested: 10 ug/ml (log 1.0))” in [4], “binds” in [5] and “no binding (tested: 10 ug/ml (log 1.0))” in experiment [6]. Besides, the Kd in experiment [2] stood at 36 nM. Besides, in [3], the “percent inhibition of HMG1 binding to RAGE” value was no less than 35%. Besides, the “EC50 (read off the curve)” value in [9] was roughly 0.08 µg/mL. In [7], the “IC50 IL-1β” value was found to be 0.22 µg/mL. In experiment [7], the “IC50 IL-6” value stood at 0.163 nM. Also, the “IC50 TNF-α” value in [7] turned out to be 0.0642 µg/mL.
